The values below come from the Human Domainome abundance scans (Beltran et al. 2025).

± gives the uncertainty stated by the source.

The chains are these.
B1: Tumor protein p73, residues 487 to 549; numbered along this chain, O15350 (parent)
chain: YHADPSLVSFLTGLGCPNCIEYFTSQGLQSIYHLQNLTIEDLGALKIPEQYRMTIWRGLQDLK

The data set covers variants of B1. Kind of data set: abundance fitness (aPCA) (normalised: wild type 0, dead -1); higher = more abundant; growth selection in yeast, the domain comes from the species named. The following applies: Homo sapiens.
As to YHADPSLVSFLTGLGCPNCIEYHTSQGLQSIYHLQNLTIEDLGALKIPEQYRMTIWRGLQDLK [F23H], the abundance fitness is -0.81 ± 0.27.

Turning to YHADPSLVSFLTGLGCPNCIEYLTSQGLQSIYHLQNLTIEDLGALKIPEQYRMTIWRGLQDLK [F23L], the abundance fitness was -0.182 ± 0.037.

Turning to YHADPSLVSFLTGLGCPNCIEYQTSQGLQSIYHLQNLTIEDLGALKIPEQYRMTIWRGLQDLK [F23Q], the abundance fitness was -0.801 ± 0.12.

Regarding YHADPSLVSFLTGLGCPNCIEYVTSQGLQSIYHLQNLTIEDLGALKIPEQYRMTIWRGLQDLK [F23V], the abundance fitness was -0.618 ± 0.049.

Take YHADPSLVSFLTGLGCPNCIEYTTSQGLQSIYHLQNLTIEDLGALKIPEQYRMTIWRGLQDLK [F23T]: the abundance fitness is -0.978 ± 0.13.

As to YHADPSLVSFLTGLGCPNCIEYPTSQGLQSIYHLQNLTIEDLGALKIPEQYRMTIWRGLQDLK [F23P], the abundance fitness is -0.907 ± 0.16.

Turning to YHADPSLVSFLTGLGCPNCIEYETSQGLQSIYHLQNLTIEDLGALKIPEQYRMTIWRGLQDLK [F23E], the abundance fitness is -1.05 ± 0.15.

For YHADPSLVSFLTGLGCPNCIEYKTSQGLQSIYHLQNLTIEDLGALKIPEQYRMTIWRGLQDLK [F23K], the abundance fitness was -0.975 ± 0.15.

For YHADPSLVSFLTGLGCPNCIEYITSQGLQSIYHLQNLTIEDLGALKIPEQYRMTIWRGLQDLK [F23I], the abundance fitness was -0.277 ± 0.14.

As for YHADPSLVSFLTGLGCPNCIEYSTSQGLQSIYHLQNLTIEDLGALKIPEQYRMTIWRGLQDLK [F23S], the abundance fitness was -1.03 ± 0.087.

Regarding YHADPSLVSFLTGLGCPNCIEYATSQGLQSIYHLQNLTIEDLGALKIPEQYRMTIWRGLQDLK [F23A], the abundance fitness was -0.971 ± 0.14.

For the variant YHADPSLVSFLTGLGCPNCIEYYTSQGLQSIYHLQNLTIEDLGALKIPEQYRMTIWRGLQDLK [F23Y], the abundance fitness was -0.638 ± 0.12.

YHADPSLVSFLTGLGCPNCIEYNTSQGLQSIYHLQNLTIEDLGALKIPEQYRMTIWRGLQDLK [F23N]: the abundance fitness is -0.733 ± 0.15.

With YHADPSLVSFLTGLGCPNCIEYWTSQGLQSIYHLQNLTIEDLGALKIPEQYRMTIWRGLQDLK [F23W], the abundance fitness was -0.966 ± 0.11.

With YHADPSLVSFLTGLGCPNCIEYGTSQGLQSIYHLQNLTIEDLGALKIPEQYRMTIWRGLQDLK [F23G], the abundance fitness is -0.995 ± 0.075.

Regarding YHADPSLVSFLTGLGCPNCIEYCTSQGLQSIYHLQNLTIEDLGALKIPEQYRMTIWRGLQDLK [F23C], the abundance fitness is -0.315 ± 0.053.

With YHADPSLVSFLTGLGCPNCIEYRTSQGLQSIYHLQNLTIEDLGALKIPEQYRMTIWRGLQDLK [F23R], the abundance fitness was -1.14 ± 0.15.

With YHADPSLVSFLTGLGCPNCIEYDTSQGLQSIYHLQNLTIEDLGALKIPEQYRMTIWRGLQDLK [F23D], the abundance fitness was -1.18 ± 0.19.

Turning to YHADPSLVSFLTGLGCPNCIEYMTSQGLQSIYHLQNLTIEDLGALKIPEQYRMTIWRGLQDLK [F23M], the abundance fitness is -0.306 ± 0.057.

YHADPSLVSFLTGLGCPNCIYYFTSQGLQSIYHLQNLTIEDLGALKIPEQYRMTIWRGLQDLK [E21Y]: the abundance fitness was -0.042 ± 0.073.

As for YHADPSLVSFLTGLGCPNCIVYFTSQGLQSIYHLQNLTIEDLGALKIPEQYRMTIWRGLQDLK [E21V], the abundance fitness is -0.018 ± 0.031.

Consider YHADPSLVSFLTGLGCPNCIWYFTSQGLQSIYHLQNLTIEDLGALKIPEQYRMTIWRGLQDLK [E21W], for which the abundance fitness is -0.087 ± 0.063.

YHADPSLVSFLTGLGCPNCIELFTSQGLQSIYHLQNLTIEDLGALKIPEQYRMTIWRGLQDLK [Y22L]: the abundance fitness turned out to be 0.009 ± 0.03.

As for YHADPSLVSFLTGLGCPNCIENFTSQGLQSIYHLQNLTIEDLGALKIPEQYRMTIWRGLQDLK [Y22N], the abundance fitness was found to be 0.002 ± 0.12.

Consider YHADPSLVSFLTGLGCPNCIEDFTSQGLQSIYHLQNLTIEDLGALKIPEQYRMTIWRGLQDLK [Y22D], for which the abundance fitness is -0.101 ± 0.063.

YHADPSLVSFLTGLGCPNCIEHFTSQGLQSIYHLQNLTIEDLGALKIPEQYRMTIWRGLQDLK [Y22H]: the abundance fitness came to 0.031 ± 0.07.

Turning to YHADPSLVSFLTGLGCPNCIEEFTSQGLQSIYHLQNLTIEDLGALKIPEQYRMTIWRGLQDLK [Y22E], the abundance fitness was -0.107 ± 0.046.

With YHADPSLVSFLTGLGCPNCIEPFTSQGLQSIYHLQNLTIEDLGALKIPEQYRMTIWRGLQDLK [Y22P], the abundance fitness is -0.069 ± 0.074.

As to YHADPSLVSFLTGLGCPNCIEKFTSQGLQSIYHLQNLTIEDLGALKIPEQYRMTIWRGLQDLK [Y22K], the abundance fitness is -0.047 ± 0.042.

Take YHADPSLVSFLTGLGCPNCIEGFTSQGLQSIYHLQNLTIEDLGALKIPEQYRMTIWRGLQDLK [Y22G]: the abundance fitness was -0.173 ± 0.034.

As to YHADPSLVSFLTGLGCPNCIEMFTSQGLQSIYHLQNLTIEDLGALKIPEQYRMTIWRGLQDLK [Y22M], the abundance fitness is -0.026 ± 0.055.

For the variant YHADPSLVSFLTGLGCPNCIEWFTSQGLQSIYHLQNLTIEDLGALKIPEQYRMTIWRGLQDLK [Y22W], the abundance fitness was -0.261 ± 0.041.

YHADPSLVSFLTGLGCPNCIEFFTSQGLQSIYHLQNLTIEDLGALKIPEQYRMTIWRGLQDLK [Y22F]: the abundance fitness turned out to be 0.002 ± 0.081.

Take YHADPSLVSFLTGLGCPNCIERFTSQGLQSIYHLQNLTIEDLGALKIPEQYRMTIWRGLQDLK [Y22R]: the abundance fitness was -0.042 ± 0.029.

For the variant YHADPSLVSFLTGLGCPNCIEAFTSQGLQSIYHLQNLTIEDLGALKIPEQYRMTIWRGLQDLK [Y22A], the abundance fitness was -0.035 ± 0.036.

As to YHADPSLVSFLTGLGCPNCIEVFTSQGLQSIYHLQNLTIEDLGALKIPEQYRMTIWRGLQDLK [Y22V], the abundance fitness was -0.079 ± 0.038.

As to YHADPSLVSFLTGLGCPNCIEIFTSQGLQSIYHLQNLTIEDLGALKIPEQYRMTIWRGLQDLK [Y22I], the abundance fitness is -0.108 ± 0.12.

For the variant YHADPSLVSFLTGLGCPNCIETFTSQGLQSIYHLQNLTIEDLGALKIPEQYRMTIWRGLQDLK [Y22T], the abundance fitness is -0.04 ± 0.041.

With YHADPSLVSFLTGLGCPNCIEYFASQGLQSIYHLQNLTIEDLGALKIPEQYRMTIWRGLQDLK [T24A], the abundance fitness is -0.02 ± 0.039.

For the variant YHADPSLVSFLTGLGCPNCIEYFFSQGLQSIYHLQNLTIEDLGALKIPEQYRMTIWRGLQDLK [T24F], the abundance fitness was -0.212 ± 0.079.

With YHADPSLVSFLTGLGCPNCIEYFESQGLQSIYHLQNLTIEDLGALKIPEQYRMTIWRGLQDLK [T24E], the abundance fitness is -0.108 ± 0.037.

Take YHADPSLVSFLTGLGCPNCIEYFDSQGLQSIYHLQNLTIEDLGALKIPEQYRMTIWRGLQDLK [T24D]: the abundance fitness is -0.198 ± 0.062.

On to YHADPSLVSFLTGLGCPNCIEYFCSQGLQSIYHLQNLTIEDLGALKIPEQYRMTIWRGLQDLK [T24C], for which the abundance fitness is -0.097 ± 0.081.
